Data reported in article PMC2764420.
Read-outs that look alike come from different tables or passages of the source.

B1: H-NS (histone-like nucleoid-structuring protein), wild type (natural protein)
chain: MSEALKILNNIRTLRAQARECTLETLEEMLEKLEVVVNERREEESAAAAEVEERTRKLQQYREMLIADGIDPNELLNSLAAVKSGTKAKRAQRPAKYSYVDENGETKTWTGQGRTPAVIKKAMDEQGKSLDDFLIKQ

Experiments:
Tn10 transposase [1] = assay: cross-linking
Tn10 transposase [2] = assay: cross-linking; remark: listed apart in the source
[3] = molecular target: folded Tn10 transpososome (UniProt P0A6X7); assay: native gel or EMSA
[4] = molecular target: pre-unfolded Tn10 transpososome; assay: native gel or EMSA

Chain of UniProt P0A6X7 (P0A6X7 whole entry, looked up): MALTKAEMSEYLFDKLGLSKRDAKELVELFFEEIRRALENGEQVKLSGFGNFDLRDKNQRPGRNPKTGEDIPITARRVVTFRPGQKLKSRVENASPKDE

| Molecule | stoichiometry N (Tn10 transposase [1]) | stoichiometry N (Tn10 transposase [2]) | percent of transpososome converted to an H-NS form at 6 nM H-NS [3] [%] | Kd [4] [nM] | percent of transpososome converted to an H-NS-bound form [4] [%] |
| --- | --- | --- | --- | --- | --- |
| Tn10 transposase (enzyme) | 2 | 2 | – | – | – |
| B1 | – | – | 5 | 0.3 | > 95 |
